Results taken from patent US20170022287A1 (Chugai, published 2017).

Key:
CRD3-4 [1] = target: T1, CRD3-4; experiment: ELISA, coated CD137-Fc protein 2 µg/mL, antibody 10 or 5 µg/mL; absorbance 620 nm divided by that of the uncoated well
T1 construct: also called fragmented human CD137-Fc fusion protein CRD3-4
Description: (§1) Fragmented human CD137-Fc fusion proteins were diluted to 2 μg/mL in an aqueous sodium carbonate solution adjusted to pH9.6. Fifty μL of a diluted fragmented human CD137-Fc fusion protein was added individually to each well of a Nunc MaxiSorp flat-bottom 96 well plate (Nunc). This was allowed to stand at 4° C. overnight or longer, and then the plate was allowed to stand at room temperature for one hour so that the plate has the same temperature as the room temperature. The solution containing the fragmented human CD137-Fc fusion protein was removed by tilting, and each well was washed three times with 300 μL of Wash buffer (TBS containing 0.1% Tween20, TaKaRa). Next, 150 μL of blocking buffer (TBS containing 2% BSA) was added to each well, and this was allowed to stand for one hour or more. The blocking buffer was removed by tilting, and each well was washed three times with Wash Buffer in a similar manner to an earlier step. Then, 50 μL of an antibody solution prepared in advance by dilution with TBS to 10 μg/mL or 5 μg/mL was added to each well. This was subjected to a speed of 600 rpm or so for one hour at room temperature to bind the antibody to the immobilized antigen. […] 100 μL of a secondary antibody solution produced by 1000-fold dilution with TBS containing 0.1% Tween20 was added to each well. For the secondary antibody, ANTIBODY ALKALINE PHOSPHATASE CONJUGATE HUMAN IMMUNOGLOBULIN ABSORBED Goat Anti-Human Kappa Alkaline Phosphate from BIOSOURCE was used in the case of antibodies carrying a Kappa chain, and Human Lambda Light Chain Antibody; Goat anti-Human Lambda Light Chain Antibody Alkaline Phosphatase Conjugated from BETHYL LABORATORIES INC. was used in the case of antibodies carrying a Lambda chain. […] Color development was performed using the BluePhos Microwell kit from KPL. After the chromogenic reaction was stopped using the AP stop solution from KPL, the absorbance was measured at 620 nm on an absorptiometer.

CRD2-4 [2] = target: T2, CRD2-4; experiment: as above
T2 construct: also called fragmented human CD137-Fc fusion protein CRD2-4
T2 sequence (chain, as listed by the source limits assumed): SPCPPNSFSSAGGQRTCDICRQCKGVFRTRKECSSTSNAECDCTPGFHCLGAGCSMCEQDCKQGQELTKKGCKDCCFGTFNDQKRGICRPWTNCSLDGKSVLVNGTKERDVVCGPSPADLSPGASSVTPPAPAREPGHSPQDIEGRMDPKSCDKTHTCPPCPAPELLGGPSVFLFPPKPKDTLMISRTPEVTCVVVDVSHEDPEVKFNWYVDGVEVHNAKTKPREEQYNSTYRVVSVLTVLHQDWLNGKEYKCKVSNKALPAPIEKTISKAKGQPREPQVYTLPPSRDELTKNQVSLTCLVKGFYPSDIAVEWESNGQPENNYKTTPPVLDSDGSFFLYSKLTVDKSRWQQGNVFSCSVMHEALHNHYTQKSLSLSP
Description: as §1

CRD2-3 [3] = target: T3, CRD2-3; experiment: as above
T3 construct: also called fragmented human CD137-Fc fusion protein CRD2-3
T3 sequence (chain, as listed by the source limits assumed): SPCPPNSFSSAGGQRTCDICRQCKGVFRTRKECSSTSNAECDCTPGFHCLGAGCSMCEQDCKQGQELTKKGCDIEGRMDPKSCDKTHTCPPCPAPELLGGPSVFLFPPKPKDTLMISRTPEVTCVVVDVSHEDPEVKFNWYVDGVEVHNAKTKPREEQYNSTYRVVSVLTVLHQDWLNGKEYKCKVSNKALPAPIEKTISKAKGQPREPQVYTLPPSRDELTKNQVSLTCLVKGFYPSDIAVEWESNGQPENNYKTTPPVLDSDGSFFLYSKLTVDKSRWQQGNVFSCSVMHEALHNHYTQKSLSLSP
Description: as §1

CRD1 [4] = target: T4, CRD1; experiment: as above
T4 construct: also called fragmented human CD137-Fc fusion protein CRD1
T4 sequence (chain, as listed by the source limits assumed): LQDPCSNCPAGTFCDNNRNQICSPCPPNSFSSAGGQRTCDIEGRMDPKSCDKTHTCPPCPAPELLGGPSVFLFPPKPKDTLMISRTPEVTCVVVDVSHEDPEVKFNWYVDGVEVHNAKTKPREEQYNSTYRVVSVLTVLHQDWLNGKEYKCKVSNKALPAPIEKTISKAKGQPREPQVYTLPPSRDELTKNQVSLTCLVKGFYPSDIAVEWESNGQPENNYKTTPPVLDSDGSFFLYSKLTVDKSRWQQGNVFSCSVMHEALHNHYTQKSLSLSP
Description: as §1

CRD1-3 [5] = target: T5, CRD1-3; experiment: as above
T5 construct: also called fragmented human CD137-Fc fusion protein CRD1-3
T5 sequence (chain, as listed by the source limits assumed): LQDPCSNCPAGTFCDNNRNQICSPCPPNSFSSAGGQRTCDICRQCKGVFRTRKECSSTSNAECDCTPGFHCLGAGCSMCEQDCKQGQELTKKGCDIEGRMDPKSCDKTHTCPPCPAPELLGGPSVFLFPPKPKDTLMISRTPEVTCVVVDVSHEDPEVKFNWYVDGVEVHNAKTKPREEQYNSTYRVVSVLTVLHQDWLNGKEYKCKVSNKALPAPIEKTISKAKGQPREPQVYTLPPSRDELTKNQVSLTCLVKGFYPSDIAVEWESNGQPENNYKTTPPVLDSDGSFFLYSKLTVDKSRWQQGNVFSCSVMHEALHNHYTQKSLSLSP
Description: as §1

CRD1-2 [6] = target: T6, CRD1-2; experiment: as above
T6 construct: also called fragmented human CD137-Fc fusion protein CRD1-2
T6 sequence (chain, as listed by the source limits assumed): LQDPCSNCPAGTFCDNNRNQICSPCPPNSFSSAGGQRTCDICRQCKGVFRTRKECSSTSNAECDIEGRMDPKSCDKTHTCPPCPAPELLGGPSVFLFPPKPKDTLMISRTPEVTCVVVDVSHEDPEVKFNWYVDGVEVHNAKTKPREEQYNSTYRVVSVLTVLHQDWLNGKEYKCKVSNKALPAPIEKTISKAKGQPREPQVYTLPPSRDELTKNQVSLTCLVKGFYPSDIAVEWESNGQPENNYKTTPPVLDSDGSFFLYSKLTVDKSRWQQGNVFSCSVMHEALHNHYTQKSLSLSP
Description: as §1

[7] = target: full-length human CD137-Fc fusion protein (human); experiment: as above
Chain of full-length human CD137-Fc fusion protein (human) (chain, as listed by the source limits assumed): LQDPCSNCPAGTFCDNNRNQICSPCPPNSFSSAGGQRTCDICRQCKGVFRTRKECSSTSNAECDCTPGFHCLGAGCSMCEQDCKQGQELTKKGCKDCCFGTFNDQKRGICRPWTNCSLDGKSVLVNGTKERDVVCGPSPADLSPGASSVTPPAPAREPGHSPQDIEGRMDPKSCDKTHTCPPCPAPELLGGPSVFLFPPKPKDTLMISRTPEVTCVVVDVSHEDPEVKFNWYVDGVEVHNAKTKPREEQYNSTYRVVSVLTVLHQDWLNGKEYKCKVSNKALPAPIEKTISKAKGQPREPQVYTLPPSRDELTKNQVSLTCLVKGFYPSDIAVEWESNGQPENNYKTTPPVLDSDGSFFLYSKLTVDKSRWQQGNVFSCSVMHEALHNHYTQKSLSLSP
Description: as §1

CRD3-4 [8] = target: T1, CRD3-4; experiment: ELISA, coated CD137-Fc protein 2 µg/mL, antibody 10 or 5 µg/mL, absorbance 620 nm; Non (uncoated well) 0.061
Description: as §1

CRD2-4 [9] = target: T2, CRD2-4; experiment: as above
Description: as §1

CRD2-3 [10] = target: T3, CRD2-3; experiment: as above
Description: as §1

CRD1 [11] = target: T4, CRD1; experiment: as above
Description: as §1

CRD1-3 [12] = target: T5, CRD1-3; experiment: as above
Description: as §1

CRD1-2 [13] = target: T6, CRD1-2; experiment: as above
Description: as §1

[14] = target: full-length human CD137-Fc fusion protein (human); experiment: as above
Description: as §1

CRD3-4 [15] = target: T1, CRD3-4; experiment: ELISA, coated CD137-Fc protein 2 µg/mL, antibody 10 or 5 µg/mL, absorbance 620 nm; Non (uncoated well) 0.051
Description: as §1

CRD2-4 [16] = target: T2, CRD2-4; experiment: as above
Description: as §1

CRD2-3 [17] = target: T3, CRD2-3; experiment: as above
Description: as §1

CRD1 [18] = target: T4, CRD1; experiment: as above
Description: as §1

CRD1-3 [19] = target: T5, CRD1-3; experiment: as above
Description: as §1

CRD1-2 [20] = target: T6, CRD1-2; experiment: as above
Description: as §1

[21] = target: full-length human CD137-Fc fusion protein (human); experiment: as above
Description: as §1

CRD3-4 [22] = target: T1, CRD3-4; experiment: ELISA, coated CD137-Fc protein 2 µg/mL, antibody 10 or 5 µg/mL, absorbance 620 nm; Non (uncoated well) 0.202
Description: as §1

CRD2-4 [23] = target: T2, CRD2-4; experiment: as above
Description: as §1

CRD2-3 [24] = target: T3, CRD2-3; experiment: as above
Description: as §1

CRD1 [25] = target: T4, CRD1; experiment: as above
Description: as §1

CRD1-3 [26] = target: T5, CRD1-3; experiment: as above
Description: as §1

CRD1-2 [27] = target: T6, CRD1-2; experiment: as above
Description: as §1

T1 sequence (chain, as listed by the source limits assumed): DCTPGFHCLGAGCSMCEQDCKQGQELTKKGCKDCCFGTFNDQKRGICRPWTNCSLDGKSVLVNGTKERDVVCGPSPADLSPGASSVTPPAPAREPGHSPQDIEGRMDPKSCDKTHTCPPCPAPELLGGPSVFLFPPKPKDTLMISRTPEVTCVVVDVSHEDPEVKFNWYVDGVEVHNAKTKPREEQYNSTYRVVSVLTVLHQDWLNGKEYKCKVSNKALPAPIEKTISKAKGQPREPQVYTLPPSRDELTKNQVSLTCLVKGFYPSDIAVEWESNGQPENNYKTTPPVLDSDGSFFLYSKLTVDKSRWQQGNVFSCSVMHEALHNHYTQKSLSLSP

| Binder | Ratio with respect to Non-Coating (CRD3-4 [1]) | Ratio with respect to Non-Coating (CRD2-4 [2]) | Ratio with respect to Non-Coating (CRD2-3 [3]) | Ratio with respect to Non-Coating (CRD1 [4]) | Ratio with respect to Non-Coating (CRD1-3 [5]) | Ratio with respect to Non-Coating (CRD1-2 [6]) | Ratio with respect to Non-Coating [7] | also measured |
| --- | --- | --- | --- | --- | --- | --- | --- | --- |
| R3 (antibody, V domains shown, Naive library clone; Fab on phage in the phage ELISA) VH: EVQLVQSGAEVKKPGASVKVSCKASGYTFTSYYTHWVRQAPGQGLEWMGIINPSGGSTSYAQKFQGRVTMTRDTSTSTVYMELSSLRSEDTAVYYCARGAPEYSSSSDYWGQGTMVTVSS VL: QSALTQPASVSGSPGQSITISCTGTSSDVGGYNFVSWYQQHPGKAPKLMIYDVSKRPSGVSTRFSGSKSGNTASLTISGLQAEDEADYYCNSYTTSSTRWMFGGGTKVTVL | 1.3 | 1.4 | 1.6 | 1.7 | 18.4 | 28.5 | 33.7 | ELISA color development level (CRD3-4 [8]): 0.077; ELISA color development level (CRD2-4 [9]): 0.0875; ELISA color development level (CRD2-3 [10]): 0.0995; ELISA color development level (CRD1 [11]): 0.103; ELISA color development level (CRD1-3 [12]): 1.12; ELISA color development level (CRD1-2 [13]): 1.74; ELISA color development level [14]: 2.06 |
| R4 (antibody, V domains shown, Naive library clone; Fab on phage in the phage ELISA) VH: EVQLVQSGAEVKKPGASVKVSCKASGYTFSGYYMHWVRQAPGQGLEWMGWINPNSGDTNYAQNFQGRVTMTRDTSISTAYMELSRLRSDDTAVYYCARDGTGYSSSPDYWGQGTPVTVSS VL: QSALTQPASVSGSPGQSITISCTGTSSDVGGYNYVSWYQQHPGKAPKLMIYDVSNRPSGVSNRFSGSKSGNTASLTISGLQAEDEADYYCSSYTSSSTRWVFGGGTKLTVL | 1.1 | 1.3 | 1.1 | 1.2 | 15.3 | 29.3 | 37.1 | ELISA color development level (CRD3-4 [15]): 0.056; ELISA color development level (CRD2-4 [16]): 0.065; ELISA color development level (CRD2-3 [17]): 0.0585; ELISA color development level (CRD1 [18]): 0.0635; ELISA color development level (CRD1-3 [19]): 0.779; ELISA color development level (CRD1-2 [20]): 1.49; ELISA color development level [21]: 1.89 |
| R2 (antibody, V domains shown, Naive library clone; Fab on phage in the phage ELISA) VH: EVQLQESGPGLVKPSETLSLTCTVSGGSISSSSYYWGWIRQPPGKGLEWIGSIHYTGSTYYNPSLKSRVTISVDTSKNQFSLKLSSVTAADTAVYYCARLNPSIAARPGAFDIWGQGTMVTVSS VL: QSVLTQPPSVSAAPGQKVTISCSGSSSNIANNFVSWFQQLPGTAPKLLIYDNNKRPSGIPDRFSGSKSGTSATLGITGLQTGDEADYYCGTWDRSLSAGVFGGGTKVTVL | 0.5 | 0.7 | 0.9 | 1.1 | 1.1 | 1 | – | ELISA color development level (CRD3-4 [22]): 0.11; ELISA color development level (CRD2-4 [23]): 0.15; ELISA color development level (CRD2-3 [24]): 0.19; ELISA color development level (CRD1 [25]): 0.226; ELISA color development level (CRD1-3 [26]): 0.226; ELISA color development level (CRD1-2 [27]): 0.202 |
